This is an account of results in publication PMC6850750 (Biochemistry, 2019).

The series deals with the molecule itself. The series can be described thus: SEC. On the technique in general: In gel filtration, larger molecules generally elute earlier.

B1: YdjI (enzyme, E. coli K12)
chain: MLADIRYWENDATNKHYAIAHFNVWNAEMLMGVIDAAEEAKSPVIISFGTGFVGNTSFEDFSHMMVSMAQKATVPVITHWDHGRSMEIIHNAWTHGMNSLMRDASAFDFEENIRLTKEAVDFFHPLGIPVEAELGHVGNETVYEEALAGYHYTDPDQAAEFVERTGCDSLAVAIGNQHGVYTSEPQLNFEVVKRVRDAVSVPLVLHGASGISDADIKTAISLGIAKINIHTELCQAAMVAVKENQDQPFLHLEREVRKAVKERALEKIKLFGSDGKAE
modifications: Cys234 oxidized to cysteic acid (seen in the electron density of each subunit)
Take B1: the stoichiometry N (commonly a count of units in the complex or per binding partner) was 4.
